“Also recorded” adds a separate entry of the source. Where no end group is shown, it is not given here.

In the data set the target is T1, GUCY2C receptor (Mus musculus, UniProt Q3UWA6).
T1 construct: from tissue; host or cells: adult mouse brain (substantia nigra mDA neurons), in vivo after tail vein injection
T1 sequence (Q3UWA6 20-1072): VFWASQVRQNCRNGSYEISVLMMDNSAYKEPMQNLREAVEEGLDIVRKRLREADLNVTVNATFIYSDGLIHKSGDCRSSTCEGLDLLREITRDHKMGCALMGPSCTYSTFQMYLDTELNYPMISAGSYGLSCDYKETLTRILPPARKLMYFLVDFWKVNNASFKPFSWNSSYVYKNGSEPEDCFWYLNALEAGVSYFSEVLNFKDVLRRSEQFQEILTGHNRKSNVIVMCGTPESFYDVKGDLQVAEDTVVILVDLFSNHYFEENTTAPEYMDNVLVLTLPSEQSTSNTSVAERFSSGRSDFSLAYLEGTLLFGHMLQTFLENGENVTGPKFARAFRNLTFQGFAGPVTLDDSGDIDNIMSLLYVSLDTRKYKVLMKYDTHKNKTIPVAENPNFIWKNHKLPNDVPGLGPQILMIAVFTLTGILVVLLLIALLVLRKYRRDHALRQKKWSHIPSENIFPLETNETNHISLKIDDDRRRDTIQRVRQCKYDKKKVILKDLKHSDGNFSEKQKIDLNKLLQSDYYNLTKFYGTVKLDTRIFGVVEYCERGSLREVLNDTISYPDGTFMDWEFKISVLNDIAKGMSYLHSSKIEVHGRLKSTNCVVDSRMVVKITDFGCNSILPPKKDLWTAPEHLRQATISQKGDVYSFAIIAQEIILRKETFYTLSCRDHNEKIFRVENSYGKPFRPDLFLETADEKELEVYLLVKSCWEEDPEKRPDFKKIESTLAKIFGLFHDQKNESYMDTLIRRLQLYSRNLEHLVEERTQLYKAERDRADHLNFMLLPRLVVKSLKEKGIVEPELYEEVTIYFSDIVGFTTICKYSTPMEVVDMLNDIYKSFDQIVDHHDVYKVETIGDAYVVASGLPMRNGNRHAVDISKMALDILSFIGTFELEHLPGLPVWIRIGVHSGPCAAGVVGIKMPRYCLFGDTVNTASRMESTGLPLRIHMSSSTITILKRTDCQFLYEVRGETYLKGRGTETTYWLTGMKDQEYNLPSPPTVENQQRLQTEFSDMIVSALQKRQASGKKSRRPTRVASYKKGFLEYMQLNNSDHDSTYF
As to the kind of experiment: Autoradiography of sagittal brain sections after tail vein injection of ^131I-guanylin. The format is in vivo. As to the method: The GUCY2C receptor binds to heat stable enterotoxins, to guanylin and to uroguanylin. Guanylin is a 15 amino acid polypeptide (PGTCEICAYAACTGC, SEQ ID NO:1) that contains a tyrosine residue within the middle of its structure (Bryant et al., Life Sci. 86:760-765 (2010)). Guanylin (R&D Systems, Inc., Minneapolis, Minn.) was radiolabeled with ^131Iodine. 1 mCi of ^131I-guanylin was injected in the tail vein of adult mice and animals were sacrificed 10 minutes post-injection without perfusion.

With “^131I-guanylin: Guanylin, a 15 amino acid polypeptide GUCY2C ligand (R&D Systems), radiolabeled with ^131Iodine (PGTCEICAYAACTGC; ends and bridges not checked; also: 131I radiolabel; UniProt Q02747 101-115, looked up)”, the “crossing of the blood brain barrier” value (adult mice, 1 mCi tail vein injection, 10 minutes post-injection) was “crossed the blood brain barrier”. In addition, under “adult mice, 1 mCi tail vein injection, sacrificed 10 minutes post-injection without perfusion”, the “localization of radioactive signal in sagittal brain sections (autoradiography)” value was “localized to the ventricles; also recorded: within the brain parenchyma the only “hot spot” was indeed localized to the GUCY2C expression domain; also recorded: strong emission in the ventricles and SN”. Under “adult mouse brain, after tail vein injection, signal specific to TH-expressing mDA neurons”, the “binding to GUCY2C expressing mDA neurons in the SN” value is given as “bound to GUCY2C expressing mDA neurons in the SN of the adult brain; also recorded: specific binding to the GUCY2C receptor”.

These data come from US20150086481A1, “DIAGNOSIS AND TREATMENT OF PARKINSON'S DISEASE” (MEMORIAL SLOAN-KETTERING CANCER CENTER, priority 2011, published 2015).
